The values below come from patent publication US20220259327A1 (published 2022).

In the test the target is T1, cyCD19 ECD (cynomolgus, UniProt A0A2K5W8L9 20-292).
T1 construct: extracellular domain; also called cynomolgus CD19 extracellular domain
T1 sequence: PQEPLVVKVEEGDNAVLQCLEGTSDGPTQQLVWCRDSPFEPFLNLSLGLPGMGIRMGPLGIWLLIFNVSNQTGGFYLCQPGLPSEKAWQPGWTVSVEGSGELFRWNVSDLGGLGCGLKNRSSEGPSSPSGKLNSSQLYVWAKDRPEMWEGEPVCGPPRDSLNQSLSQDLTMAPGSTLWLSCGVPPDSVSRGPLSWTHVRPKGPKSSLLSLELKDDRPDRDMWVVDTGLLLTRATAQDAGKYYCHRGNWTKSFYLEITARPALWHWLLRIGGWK
The experiment in a line: binding to cyCD19 ECD, method not stated.

B1: wild-type humanized anti-human CD19 antibody (var.0) (antibody, V domains shown)
VH: QVQLVQSGAEVKKPGASVKVSCKASGYTFTDYIMHWVRQAPGQGLEWMGYINPYNDGSKYTEKFNGKATMTSDTSISTAYMELSRLRSDDTAVYYCARGTYYYGSALFDYWGQGTTVTVSS
VL: DIVMTQTPLSLSVTPGQPASISCKSSQSLENSNGNTYLNWYLQKPGQSPQLLIYRVSKRFSGVPDRFSGSGSGTDFTLKISRVEAEDVGVYYCLQLTHVPYTFGQGTKLEIK
In turn, B1 came in with an EC50 of 0.313 µg/mL.

B2: humanized anti-human CD19 antibody var.9 (S27eP/N28S) (antibody, V domains shown)
VH: QVQLVQSGAEVKKPGASVKVSCKASGYTFTDYIMHWVRQAPGQGLEWMGYINPYNDGSKYTEKFQGRVTMTSDTSISTAYMELSRLRSDDTAVYYCARGTYYYGSALFDYWGQGTTVTVSS
VL: DIVMTQTPLSLSVTPGQPASISCKSSQSLENPSGNTYLNWYLQKPGQSPQLLIYRVSKRFSGVPDRFSGSGSGTDFTLKISRVEAEDVGVYYCLQLTHVPYTFGQGTKLEIK
For the molecule B2, the EC50 was 0.435 µg/mL. This EC50 and that of the molecule before are within 1.5-fold of each other.

B3: humanized anti-human CD19 antibody var.5 (S27eP), named clone 8B8-018 (antibody, V domains shown)
VH: QVQLVQSGAEVKKPGASVKVSCKASGYTFTDYIMHWVRQAPGQGLEWMGYINPYNDGSKYTEKFQGRVTMTSDTSISTAYMELSRLRSDDTAVYYCARGTYYYGSALFDYWGQGTTVTVSS
VL: DIVMTQTPLSLSVTPGQPASISCKSSQSLENPNGNTYLNWYLQKPGQSPQLLIYRVSKRFSGVPDRFSGSGSGTDFTLKISRVEAEDVGVYYCLQLTHVPYTFGQGTKLEIK
notes: also called variant 5
Molecule B3 displayed an EC50 of 0.255 µg/mL. Compared with the last molecule, the EC50 is about 1.7-fold lower.
